In one data set the target is T1, SPF30 197-217 peptide (human, UniProt O75940 197-217).
T1 chain: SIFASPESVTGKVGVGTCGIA
Briefly: EMSA; EMSA: 40 mM Tris-HCl pH 7.4, 30 mM KCl, 1 mM MgCl2, 0.01% IGEPAL CA-630, 25 °C 30 min, 20 fmol RNA in 12 µl; UV cross-linking: 50 mM Tris-HCl pH 7.4, 150 mM NaCl, 0.5% IGEPAL CA-630, 4 °C 4 h. The note with it: label: biotin; stem-loop predicted at intron 3/exon 4a/exon 4.

The next data set addresses T2, 6xHis-SPF30 WT (human, UniProt O75940 1-238).
T2 sequence: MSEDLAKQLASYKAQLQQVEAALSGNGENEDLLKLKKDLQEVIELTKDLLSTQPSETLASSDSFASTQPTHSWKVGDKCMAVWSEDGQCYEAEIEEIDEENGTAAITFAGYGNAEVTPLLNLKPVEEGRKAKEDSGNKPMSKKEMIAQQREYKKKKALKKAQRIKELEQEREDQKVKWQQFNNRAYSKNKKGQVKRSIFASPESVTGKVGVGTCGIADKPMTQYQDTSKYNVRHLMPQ
Briefly: EMSA; 200 or 400 ng protein; EMSA: 40 mM Tris-HCl pH 7.4, 30 mM KCl, 1 mM MgCl2, 0.01% IGEPAL CA-630, 25 °C 30 min, 20 fmol RNA in 12 µl; UV cross-linking: 50 mM Tris-HCl pH 7.4, 150 mM NaCl, 0.5% IGEPAL CA-630, 4 °C 4 h. The note with it: protein: recombinant; tags: N-terminal 6xHis (pCold I); C-terminal FLAG from primer KI-125; label: biotin; stem-loop predicted at intron 3/exon 4a/exon 4.

The target of a further data set is T3, SPF30 ΔC1 (human, UniProt O75940 1-164).
T3 sequence: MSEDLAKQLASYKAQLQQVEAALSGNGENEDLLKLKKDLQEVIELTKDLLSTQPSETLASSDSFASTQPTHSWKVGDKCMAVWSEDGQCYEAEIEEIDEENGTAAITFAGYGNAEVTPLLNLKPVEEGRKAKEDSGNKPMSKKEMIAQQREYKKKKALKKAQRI
Described as above. As to conditions: protein: recombinant; tags: N-terminal 6xHis; label: biotin; stem-loop predicted at intron 3/exon 4a/exon 4.

The target of another data set is T4, SPF30 ΔC5 (human, UniProt O75940 1-217).
T4 sequence: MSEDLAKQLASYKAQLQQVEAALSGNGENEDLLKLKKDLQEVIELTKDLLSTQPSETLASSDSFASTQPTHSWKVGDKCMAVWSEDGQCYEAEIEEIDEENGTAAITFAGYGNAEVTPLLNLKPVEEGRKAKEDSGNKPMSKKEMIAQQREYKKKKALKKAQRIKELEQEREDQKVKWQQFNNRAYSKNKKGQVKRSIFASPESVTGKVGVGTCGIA
Described as above. The note with it: protein: recombinant; tags: N-terminal 6xHis; label: biotin; stem-loop predicted at intron 3/exon 4a/exon 4.

The target of the next data set is T5, SPF30 FSV3A (human, UniProt O75940 1-238, F199A;S201A;V209A).
T5 sequence: T2 sequence with F199A, S201A, V209A
Put plainly: EMSA; 200 or 400 ng protein; distinct mobility from WT; EMSA: 40 mM Tris-HCl pH 7.4, 30 mM KCl, 1 mM MgCl2, 0.01% IGEPAL CA-630, 25 °C 30 min, 20 fmol RNA in 12 µl; UV cross-linking: 50 mM Tris-HCl pH 7.4, 150 mM NaCl, 0.5% IGEPAL CA-630, 4 °C 4 h. As to conditions: protein: recombinant; tags: N-terminal 6xHis; label: biotin; stem-loop predicted at intron 3/exon 4a/exon 4.

Positions count from the first letter of the chain named.

B1: BT-RNA WT (ssRNA)
RNA: CUGCUUACAGCCAUGAUAUCUUUACAGGUGUUAUGAAGCGG
Regarding B1, the binding result with SPF30 197-217 peptide was “no binding”; in the data set with 6xHis-SPF30 WT, “binds”; in the data set with SPF30 ΔC1, “no binding”; with SPF30 ΔC5 it was “binds”; with SPF30 FSV3A, “binds”.

Values taken from paper PMC12398788, “Molecular basis of the autoregulatory mechanism of motor neuron-related splicing factor 30”.
